# Non-standard residues stand in square brackets, D forms with d. No end group written: not given here. *: point of attachment. Biotin = O=C1N[C@H]2[C@H](CS[C@H]2CCCCC(=O)*)N1; sY = N[C@@H](Cc1ccc(OS(=O)(=O)O)cc1)C(=O)O
# T1: SulfoTyr C4 peptide (not fully specified; Y4, Y7 and Y9 sulfated (SO3); C-terminal biotin)
# T1 construct: also called C4 alpha chain peptide; human sulfotyrosinylated C4 peptide
# T1 peptide: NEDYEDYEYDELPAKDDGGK
# T2: Sulfotyr fibrinogen γ peptide (not fully specified; Y8 and Y12 sulfated (SO3); C-terminal biotin)
# T2 construct: also called Fibrinogen gamma peptide; human sulfotyrosinylated fibrinogen peptide
# T2 peptide: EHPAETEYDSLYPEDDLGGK
# T3: Human fibrinogen protein (ThermoFisher, RP-43142) (human, UniProt P02671 20-629; P02675 31-491; P02679 27-453, limits assumed, natural sulfotyrosines)
# T3 construct: mature; Native dimer with 3 pairs of non-identical chains; also called gamma-fibrinogen; γ fibrinogen protein
# T3 sequence (looked up) 1: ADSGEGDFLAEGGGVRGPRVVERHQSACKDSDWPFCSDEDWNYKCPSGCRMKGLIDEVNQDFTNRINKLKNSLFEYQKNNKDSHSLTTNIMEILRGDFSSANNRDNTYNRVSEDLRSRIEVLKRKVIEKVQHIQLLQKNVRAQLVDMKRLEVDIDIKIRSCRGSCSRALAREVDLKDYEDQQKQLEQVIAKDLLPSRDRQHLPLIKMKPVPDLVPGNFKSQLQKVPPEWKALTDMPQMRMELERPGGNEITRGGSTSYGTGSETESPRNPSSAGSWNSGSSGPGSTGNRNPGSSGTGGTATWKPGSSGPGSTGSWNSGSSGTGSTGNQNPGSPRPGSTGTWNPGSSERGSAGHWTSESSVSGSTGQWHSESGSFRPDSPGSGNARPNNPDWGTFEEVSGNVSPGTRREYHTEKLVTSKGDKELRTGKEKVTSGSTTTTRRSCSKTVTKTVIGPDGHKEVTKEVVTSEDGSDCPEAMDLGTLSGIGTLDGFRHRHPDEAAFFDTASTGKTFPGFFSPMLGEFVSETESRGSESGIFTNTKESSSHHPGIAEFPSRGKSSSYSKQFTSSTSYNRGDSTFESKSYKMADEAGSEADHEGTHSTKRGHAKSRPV
# T3 sequence (looked up) 2: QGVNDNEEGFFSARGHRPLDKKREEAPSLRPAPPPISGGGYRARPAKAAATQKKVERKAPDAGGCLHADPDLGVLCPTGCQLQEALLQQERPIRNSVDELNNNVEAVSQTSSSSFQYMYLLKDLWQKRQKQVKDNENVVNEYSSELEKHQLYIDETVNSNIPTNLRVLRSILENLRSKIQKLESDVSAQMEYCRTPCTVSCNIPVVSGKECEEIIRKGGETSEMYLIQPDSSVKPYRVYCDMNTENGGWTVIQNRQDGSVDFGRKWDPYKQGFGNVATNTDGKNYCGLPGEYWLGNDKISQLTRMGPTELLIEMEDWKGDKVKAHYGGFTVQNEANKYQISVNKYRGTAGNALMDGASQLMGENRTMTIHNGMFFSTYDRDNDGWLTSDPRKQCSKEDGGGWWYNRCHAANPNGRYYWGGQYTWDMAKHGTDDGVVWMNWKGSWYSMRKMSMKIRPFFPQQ
# T3 sequence (looked up) 3: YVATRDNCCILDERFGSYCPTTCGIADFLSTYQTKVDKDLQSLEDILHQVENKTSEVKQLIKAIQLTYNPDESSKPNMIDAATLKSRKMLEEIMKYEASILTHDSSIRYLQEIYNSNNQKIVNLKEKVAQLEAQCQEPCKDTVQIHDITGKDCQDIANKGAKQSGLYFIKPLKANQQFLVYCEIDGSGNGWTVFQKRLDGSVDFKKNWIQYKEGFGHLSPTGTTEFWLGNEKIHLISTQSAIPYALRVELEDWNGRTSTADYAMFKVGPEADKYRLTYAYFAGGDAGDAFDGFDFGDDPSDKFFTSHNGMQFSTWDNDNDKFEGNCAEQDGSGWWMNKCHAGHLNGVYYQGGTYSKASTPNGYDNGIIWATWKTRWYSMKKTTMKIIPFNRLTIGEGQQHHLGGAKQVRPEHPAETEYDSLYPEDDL
# T4: SulfoCCK biotin peptide (human)
# T4 construct: also called sulfotyrosine CCK peptide
# T4 peptide: SHRISDRD[sY]MGWMDFGGK(Biotin)
# T5: Sulfotyrosine CCR2b biotin peptide (human)
# T5 construct: also called CCR2b peptide
# T5 peptide: TTFFD[sY]D[sY]GAPSHGGK(Biotin)
# T6: Sulfotyrosine D6 biotin peptide (human)
# T6 construct: also called D6 peptide
# T6 peptide: ENSSFY[sY][sY]D[sY]LDEVAFGGK(Biotin)
# T7: Scrambled Y42,52,63(SO3) PSGL-1(42-62) biotin peptide (sulfotyrosine at peptide positions 1, 11 and 22; C-terminal Lys-biotin)
# T7 peptide: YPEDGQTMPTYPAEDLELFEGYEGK
# T8: Biotin PSGL-1(42-62) peptide, unmodified (human, C-terminal Lys-biotin)
# T8 construct: Residues 42-62 followed by GGGK-biotin; also called WT; wild-type
# T8 peptide: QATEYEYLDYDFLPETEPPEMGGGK
# T9: Biotin Y46,48,51(SO3) PSGL-1(42-62) peptide (human, sulfotyrosine at Y46, Y48 and Y51; C-terminal Lys-biotin)
# T9 construct: also called fully sulfated N-terminal PSGL-1 peptide
# T9 peptide: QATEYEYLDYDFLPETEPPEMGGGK
# Key:
# [1] = molecular target: T1, SulfoTyr C4 peptide; experiment: ELISA, 50 nM mAb
# Procedure: (§1) Recombinant PSGL-1-hFc1 chimera protein consisting of PSGL-1's extracellular domain (ECD) served as a positive control. […] Primary antibody was added (25 ul per well) in duplicate at 50 nM in assay buffer (blocking buffer containing 0.05% Tween®20) into test and control (just blocked) wells and the plate incubated for 45 min at 37° C.
# [2] = molecular target: T2, Sulfotyr fibrinogen γ peptide; experiment: ELISA, 50 nM mAb
# Procedure: as §1
# [3] = molecular target: T10, Human complement C4 protein (Millipore Sigma, Cat. 204886) (human, UniProt P0C0L4 20-675; P0C0L4 680-1446; P0C0L4 1454-1744, limits assumed, natural sulfotyrosines); experiment: ELISA, 50 nM mAb
# T10 construct: mature
# T10 sequence (P0C0L4 20-675 limits assumed, form in doubt, chain 1 of 3): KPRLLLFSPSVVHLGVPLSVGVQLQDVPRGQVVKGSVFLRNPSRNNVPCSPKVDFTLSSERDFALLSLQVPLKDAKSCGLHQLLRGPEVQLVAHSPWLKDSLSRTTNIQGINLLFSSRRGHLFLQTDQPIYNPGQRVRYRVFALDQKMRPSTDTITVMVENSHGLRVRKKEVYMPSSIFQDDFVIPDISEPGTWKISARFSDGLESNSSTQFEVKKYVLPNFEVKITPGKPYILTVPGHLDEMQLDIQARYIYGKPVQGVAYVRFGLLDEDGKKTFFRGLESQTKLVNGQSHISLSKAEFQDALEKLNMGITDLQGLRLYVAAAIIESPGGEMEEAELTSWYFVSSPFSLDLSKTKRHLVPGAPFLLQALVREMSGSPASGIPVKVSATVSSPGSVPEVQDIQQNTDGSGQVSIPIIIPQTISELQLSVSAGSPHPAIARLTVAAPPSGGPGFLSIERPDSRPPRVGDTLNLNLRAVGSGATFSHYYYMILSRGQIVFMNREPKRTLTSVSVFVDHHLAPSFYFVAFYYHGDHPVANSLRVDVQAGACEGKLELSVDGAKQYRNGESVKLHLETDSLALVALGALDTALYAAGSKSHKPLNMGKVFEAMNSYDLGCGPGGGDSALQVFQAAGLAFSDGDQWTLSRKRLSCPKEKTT
# T10 sequence (P0C0L4 680-1446 limits assumed, form in doubt, chain 2 of 3): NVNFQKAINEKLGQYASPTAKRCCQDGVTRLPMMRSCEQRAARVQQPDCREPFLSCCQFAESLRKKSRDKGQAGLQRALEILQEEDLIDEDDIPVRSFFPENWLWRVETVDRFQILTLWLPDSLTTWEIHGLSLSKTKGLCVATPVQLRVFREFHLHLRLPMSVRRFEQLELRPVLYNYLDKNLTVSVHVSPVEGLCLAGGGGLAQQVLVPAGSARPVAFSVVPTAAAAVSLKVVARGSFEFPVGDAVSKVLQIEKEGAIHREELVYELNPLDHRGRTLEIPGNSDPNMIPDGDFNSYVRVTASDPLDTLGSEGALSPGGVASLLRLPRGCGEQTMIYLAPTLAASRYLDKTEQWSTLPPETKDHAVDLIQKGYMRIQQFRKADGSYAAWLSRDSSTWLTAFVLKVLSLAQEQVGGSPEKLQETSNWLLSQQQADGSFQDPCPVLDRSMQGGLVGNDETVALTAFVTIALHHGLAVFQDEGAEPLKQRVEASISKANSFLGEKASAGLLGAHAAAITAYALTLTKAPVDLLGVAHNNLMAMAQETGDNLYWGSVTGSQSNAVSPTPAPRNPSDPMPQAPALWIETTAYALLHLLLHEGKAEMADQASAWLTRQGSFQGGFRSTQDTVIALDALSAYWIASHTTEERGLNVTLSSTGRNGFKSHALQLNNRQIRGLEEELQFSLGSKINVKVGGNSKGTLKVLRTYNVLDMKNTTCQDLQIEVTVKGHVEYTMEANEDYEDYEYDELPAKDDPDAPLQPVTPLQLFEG
# T10 sequence (P0C0L4 1454-1744 limits assumed, form in doubt, chain 3 of 3): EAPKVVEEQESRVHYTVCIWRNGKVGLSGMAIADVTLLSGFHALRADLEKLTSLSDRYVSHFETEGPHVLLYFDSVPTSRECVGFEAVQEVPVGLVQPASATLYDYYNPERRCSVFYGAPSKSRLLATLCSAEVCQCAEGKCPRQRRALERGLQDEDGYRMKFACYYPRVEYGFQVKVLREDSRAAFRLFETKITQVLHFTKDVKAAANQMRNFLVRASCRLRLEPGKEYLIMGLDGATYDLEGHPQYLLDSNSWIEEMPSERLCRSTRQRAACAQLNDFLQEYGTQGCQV
# Procedure: as §1
# [4] = molecular target: T3, Human fibrinogen protein (ThermoFisher, …); experiment: ELISA, 50 nM mAb
# Procedure: as §1
# [5] = molecular target: T4, SulfoCCK biotin peptide; experiment: ELISA, 50 nM mAb
# Procedure: as §1
# [6] = molecular target: T5, Sulfotyrosine CCR2b biotin peptide; experiment: ELISA, 50 nM mAb
# Procedure: as §1
# [7] = molecular target: T6, Sulfotyrosine D6 biotin peptide; experiment: ELISA, 50 nM mAb
# Procedure: as §1
# [8] = molecular target: T11, Cynomolgus PSGL-1(ECD)-hFc1 (cynomolgus macaque); experiment: ELISA, plate cyno PSGL-1(ECD)-Fc
# T11 construct: also called Cyno PSGL1-Fc; Cyno PSGL-1(ECD)-Fc
# Procedure: Antibody binding to plate-immobilized cyno PSGL-1(ECD) was determined either at one concentration (20 nM) or by generating full antibody binding curves (0.003-200 nM). A typical ELISA was performed by overnight coating at 4° C. with 3 ug/mL/25 ul per well of recombinant cyno PSGL-1(ECD) protein in PBS, pH 7.4, in high binding half-well plates (Corning Cat. #3690). […] Anti-PSGL-1 IgG in assay buffer (blocking buffer containing 0.05% tween 20) was added into test and control wells (20 nM/25 ul/well) and the plate incubated for 45 min at 37° C. […] The plate was incubated for 45 min at 37° C., and mAb bound to plate-immobilized target determined at A450 nm using HRP substrate (3,3′,5,5′-tetramethylbenzidine (TMB)). For each antibody, duplicate values were averaged and assay background subtracted.
# [9] = molecular target: T7, Scrambled Y42,52,63(SO3) PSGL-1(42-62) …; experiment: ELISA, immobilized biotin peptide
# Summary of the method: (§2)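 In this ELISA, half-well high binding plates (Corning Cat. #3690) received 3 ug/mL/25 ul per well of biotin-tagged PSGL-1 peptides covering residues 42 to 62, diluted in PBS, pH 7.4, and coated overnight at 4° C. Duplicate readings for each antibody were averaged and the average assay background was subtracted. PSGL-1 protein or peptide was the positive control.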
# [10] = molecular target: T8, Biotin PSGL-1(42-62) peptide, unmodified; experiment: ELISA, immobilized biotin peptide
# Summary of the method: as §2
# [11] = molecular target: T9, Biotin Y46,48,51(SO3) PSGL-1(42-62) …; experiment: ELISA, immobilized biotin peptide
# Summary of the method: as §2
Binder,binding normalized to PSGL-1 [1],binding normalized to PSGL-1 [2],binding normalized to PSGL-1 [3],binding normalized to PSGL-1 [4],binding normalized to PSGL-1 [5],binding normalized to PSGL-1 [6],binding normalized to PSGL-1 [7],binding result [8],binding result [9],"A450nm, 20 nM mAb [10] [A450nm]","A450nm, 20 nM mAb [11] [A450nm]","A450nm, 20 nM mAb [9] [A450nm]",EC50 [10] [nM],EC50 [11] [nM]
"05A07 (antibody, IgG4, V domains shown) VH: QVQLVQSGSEVKRPGASVKVSCKTSGYTFSNYGIAWVRQAPGQGLEWVGWVSAYNGKTGASQKLQGRVTMTTDRSTTTAYLELRSLQSDDTAVYYCARGVKGGLTGYARDYWGQGTLVIVSS VL: DIVLTQSPRSLPVTLGQPASISCRSSQSLVNRAGDTYLNWFQQRPGQSPRRLIYKVSNRDSGVPDRFSGSGSGTDFTLKISRVEAEDVGVYYCMQGTQWPYTFGQGTKLEIK",1.15,1.22,1.13,0.53,1.17,1.09,1.22,no binding (tested: 20 nM),no binding (tested: 20 nM),0.17,2.44,–,–,–
"03B01 (antibody, IgG4, V domains shown) VH: QMQLVQSGAEVKKPGASVKVSCRASGYRFSTYAISWVRQAPGQGLEWIGWISTHHGNTKYAQKFQDRVTMTADASTSIAYMELRSLRSDDTAVYYCAAAIGNYWGQGTLVTVSS VL: EIVLTQSPAILSVSPGERASLSCRASQSVSSKLAWYQQKPGQAPRLLIYGASTRATGIPPRFSGSGSGTDFTLTISSLEPEDFAVYYCQQRSNWPLTFGGGTKVEIK",1.15,1.23,1.1,0.11,1.14,1.1,–,no binding (tested: 20 nM),no binding (tested: 20 nM),–,2.62,0.04,~500,0.04
"06B02 (antibody, IgG4, V domains shown) VH: QVQLVESGPGLVKPSETLSLTCTVSGVSVSSYYWTWVRQSPGKGLEWIGHVHHSGISNYNPSLKSRVVMSVDTSKNYFSLKLRSVTAADTAVYYCARGGPRISPTNWGQGTLVTVSS VL: QPVLTQPPSVSKALRQTATLTCTGNSNNVGYQGATWLRQHQGHPPRLLSYRNNNRPSGISERFSASRSGNTATLTITGLQPDDEADYYCAAWDSSLSAWVFGGGTKLTVL",0.97,1.22,1.09,0.03,0.78,0.61,–,no binding (tested: 20 nM),no binding (tested: 20 nM),0.37,2.57,–,–,–
"02G01 (antibody, IgG4, V domains shown) VH: EVQLVQSGAEVKKPGASVKVSCKASGYTFTSYGISWVRQAPGQGLEWMGWISAYNGNTNYAQKLQGRVTMTTDTSTSTAYMELRSLRSDDTAVYYCARVTRLPGGGYAFDIWGQGTMVTVSL VL: QSVLTQPPSASGTPGQRITISCSGSTSNIGNKHVYWYQQFPGAAPKLLIHNTNKRPSGVPDRFSGSKSGTSASLAISGLQSDDEADYYCAAWDGSLSAWVFGGGTKLTVL",0.94,0.97,0.58,0.07,1.1,0.78,0.69,no binding (tested: 20 nM),no binding (tested: 20 nM),–,2.72,–,3.8,0.03
"02H08 (antibody, IgG4, V domains shown) VH: not shown VL: QSVLTQPPSVSAAPGQKVTISCSGSYFNIGNHYVSWYHQLPGTAPKLLIYDNNLRPSGIPDRFSASKSGTSATLGITGLQTGDEGDYYCGTWDSSLSGRVFGGGTKLTVL",1.34,1.34,0.94,0.11,1.27,1.32,–,no binding (tested: 20 nM),no binding (tested: 20 nM),–,2.45,0.03,> 500,1.6
